Assay results reported in IntAct's records for PubMed 29892012.

B1: Genetic suppressor element 1 (Homo sapiens), Q14687 (parent)
chain: MKGMSHEPKSPSLGMLSTATRTTATVNPLTPSPLNGALVPSGSPATSSALSAQAAPSSSFAAALRKLAKQAEEPRGSSLSSESSPVSSPATNHSSPASTPKRVPMGPIIVPPGGHSVPSTPPVVTIAPTKTVNGVWRSESRQDAGSRSSSGGRERLIVEPPLPQEKAGGPAIPSHLLSTPYPFGLSPSSVVQDSRFPPLNLQRPVHHVVPPSTVTEDYLRSFRPYHTTDDLRMSSLPPLGLDPATAAAYYHPSYLAPHPFPHPAFRMDDSYCLSALRSPFYPIPTPGSLPPLHPSAMHLHLSGVRYPPELSHSSLAALHSERMSGLSAERLQMDEELRREREREREREREREADREREKEREREREKEREQEKEREREKERERELERQREQRAREKELLAAKALEPSFLPVAELHGLRGHATEERGKPSEQLTPTRAEKLKDAGLQAPKPVQHPLHPVPTPHHTVPSLISNHGIFSLPSSSAATALLIQRTNEEEKWLARQRRLRQEKEDRQSQVSEFRQQVLEQHLDMGRPPVPAEAEHRPESTTRPGPNRHEPGGRDPPQHFGGPPPLISPKPQLHAAPTALWNPVSLMDNTLETRRAESHSLHSHPAAFEPSRQAAVPLVKVERVFCPEKAEEGPRKREPAPLDKYQPPPPPPREGGSLEHQPFLPGPGPFLAELEKSTQTILGQQRASLPQAATFGELSGPLKPGSPYRPPVPRAPDPAYIYDEFLQQRRRLVSKLDLEERRRREAQEKGYYYDLDDSYDESDEEEVRAHLRCVAEQPPLKLDTSSEKLEFLQLFGLTTQQQKEELVAQKRRKRRRMLRERSPSPPTIQSKRQTPSPRLALSTRYSPDEMNNSPNFEEKKKFLTIFNLTHISAEKRKDKERLVEMLRAMKQKALSAAVADSLTNSPRDSPAVSLSEPATQQASLDVEKPVGVAASLSDIPKAAEPGKLEQVRPQELSRVQELAPASGEKARLSEAPGGKKSLSMLHYIRGAAPKDIPVPLSHSTNGKSKPWEPFVAEEFAHQFHESVLQSTQKALQKHKGSVAVLSAEQNHKVDTSVHYNIPELQSSSRAPPPQHNGQQEPPTARKGPPTQELDRDSEEEEEEDDEDGEDEEEVPKRKWQGIEAVFEAYQEHIEEQNLERQVLQTQCRRLEARHYSLSLTAEQLSHSVAELRSQKQKMVSERERLQAELDHLRKCLALPAMHWPRGYLKGYPR
partner: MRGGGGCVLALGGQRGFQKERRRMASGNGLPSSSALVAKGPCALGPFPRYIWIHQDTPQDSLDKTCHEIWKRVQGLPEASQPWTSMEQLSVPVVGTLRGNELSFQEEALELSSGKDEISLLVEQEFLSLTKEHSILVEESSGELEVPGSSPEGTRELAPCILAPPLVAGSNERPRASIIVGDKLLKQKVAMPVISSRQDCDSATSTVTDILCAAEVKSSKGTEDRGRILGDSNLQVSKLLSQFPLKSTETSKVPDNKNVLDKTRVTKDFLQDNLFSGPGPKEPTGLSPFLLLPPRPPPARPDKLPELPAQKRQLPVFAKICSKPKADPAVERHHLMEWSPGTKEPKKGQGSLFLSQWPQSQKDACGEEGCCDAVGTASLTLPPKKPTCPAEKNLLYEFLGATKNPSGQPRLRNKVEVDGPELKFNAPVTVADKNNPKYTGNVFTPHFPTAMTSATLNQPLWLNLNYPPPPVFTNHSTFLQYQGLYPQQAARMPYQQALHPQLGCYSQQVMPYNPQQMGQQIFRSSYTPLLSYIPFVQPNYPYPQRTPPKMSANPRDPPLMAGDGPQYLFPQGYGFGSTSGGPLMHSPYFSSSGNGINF
B2: Ribonuclease inhibitor (Homo sapiens), P13489 (parent)
chain: MSLDIQSLDIQCEELSDARWAELLPLLQQCQVVRLDDCGLTEARCKDISSALRVNPALAELNLRSNELGDVGVHCVLQGLQTPSCKIQKLSLQNCCLTGAGCGVLSSTLRTLPTLQELHLSDNLLGDAGLQLLCEGLLDPQCRLEKLQLEYCSLSAASCEPLASVLRAKPDFKELTVSNNDINEAGVRVLCQGLKDSPCQLEALKLESCGVTSDNCRDLCGIVASKASLRELALGSNKLGDVGMAELCPGLLHPSSRLRTLWIWECGITAKGCGDLCRVLRAKESLKELSLAGNELGDEGARLLCETLLEPGCQLESLWVKSCSFTAACCSHFSSVLAQNRFLLELQISNNRLEDAGVRELCQGLGQPGSVLRVLWLADCDVSDSSCSSLAATLLANHSLRELDLSNNCLGDAGILQLVESVRQPGCLLEQLVLYDIYWSEEMEDRLQALEKDKPSLRVIS
B3: Alpha-ketoglutarate-dependent dioxygenase alkB homolog 3 (Homo sapiens), Q96Q83 (parent)
chain: MEEKRRRARVQGAWAAPVKSQAIAQPATTAKSHLHQKPGQTWKNKEHHLSDREFVFKEPQQVVRRAPEPRVIDREGVYEISLSPTGVSRVCLYPGFVDVKEADWILEQLCQDVPWKQRTGIREDITYQQPRLTAWYGELPYTYSRITMEPNPHWHPVLRTLKNRIEENTGHTFNSLLCNLYRNEKDSVDWHSDDEPSLGRCPIIASLSFGATRTFEMRKKPPPEENGDYTYVERVKIPLDHGTLLIMEGATQADWQHRVPKEYHSREPRVNLTFRTVYPDPRGAPW
partner: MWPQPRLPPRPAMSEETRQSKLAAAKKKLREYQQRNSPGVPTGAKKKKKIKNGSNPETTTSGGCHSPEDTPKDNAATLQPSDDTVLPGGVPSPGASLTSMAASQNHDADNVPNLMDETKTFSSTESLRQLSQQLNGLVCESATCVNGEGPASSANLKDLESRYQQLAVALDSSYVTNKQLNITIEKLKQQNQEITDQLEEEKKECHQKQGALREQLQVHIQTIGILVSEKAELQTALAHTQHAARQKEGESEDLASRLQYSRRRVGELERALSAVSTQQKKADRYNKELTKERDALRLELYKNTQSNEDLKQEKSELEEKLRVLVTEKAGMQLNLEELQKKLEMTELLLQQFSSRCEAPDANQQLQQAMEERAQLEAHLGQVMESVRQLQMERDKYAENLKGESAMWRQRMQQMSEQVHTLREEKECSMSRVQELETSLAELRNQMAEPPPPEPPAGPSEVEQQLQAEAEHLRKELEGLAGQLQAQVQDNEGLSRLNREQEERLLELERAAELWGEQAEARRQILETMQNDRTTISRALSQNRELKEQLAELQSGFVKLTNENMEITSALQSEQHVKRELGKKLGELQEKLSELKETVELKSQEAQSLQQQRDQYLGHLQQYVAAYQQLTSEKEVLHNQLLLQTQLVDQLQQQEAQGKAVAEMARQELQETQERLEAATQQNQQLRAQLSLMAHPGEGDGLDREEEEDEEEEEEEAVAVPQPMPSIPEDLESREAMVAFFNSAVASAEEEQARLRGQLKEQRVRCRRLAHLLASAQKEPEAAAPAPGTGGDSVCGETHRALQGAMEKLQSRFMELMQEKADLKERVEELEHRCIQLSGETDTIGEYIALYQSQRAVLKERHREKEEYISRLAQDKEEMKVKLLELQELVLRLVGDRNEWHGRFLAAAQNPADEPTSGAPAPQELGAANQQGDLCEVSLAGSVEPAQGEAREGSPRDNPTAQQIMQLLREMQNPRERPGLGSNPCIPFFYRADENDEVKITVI
B4: Inositol polyphosphate 5-phosphatase K (Homo sapiens), Q9BT40 (parent)
chain: MSSRKLSGPKGRRLSIHVVTWNVASAAPPLDLSDLLQLNNRNLNLDIYVIGLQELNSGIISLLSDAAFNDSWSSFLMDVLSPLSFIKVSHVRMQGILLLVFAKYQHLPYIQILSTKSTPTGLFGYWGNKGGVNICLKLYGYYVSIINCHLPPHISNNYQRLEHFDRILEMQNCEGRDIPNILDHDLIIWFGDMNFRIEDFGLHFVRESIKNRCYGGLWEKDQLSIAKKHDPLLREFQEGRLLFPPTYKFDRNSNDYDTSEKKRKPAWTDRILWRLKRQPCAGPDTPIPPASHFSLSLRGYSSHMTYGISDHKPVSGTFDLELKPLVSAPLIVLMPEDLWTVENDMMVSYSSTSDFPSSPWDWIGLYKVGLRDVNDYVSYAWVGDSKVSCSDNLNQVYIDISNIPTTEDEFLLCYYSNSLRSVVGISRPFQIPPGSLREDPLGEAQPQI
partner: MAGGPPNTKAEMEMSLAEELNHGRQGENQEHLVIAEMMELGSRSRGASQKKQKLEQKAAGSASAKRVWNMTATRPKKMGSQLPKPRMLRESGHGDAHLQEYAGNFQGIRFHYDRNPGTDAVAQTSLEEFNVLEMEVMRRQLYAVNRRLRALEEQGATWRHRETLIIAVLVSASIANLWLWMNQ
B5: Inositol polyphosphate 5-phosphatase K (Homo sapiens), Q9BT40 (parent)
chain: B4 chain
B6: Keratin, type I cuticular Ha8 (Homo sapiens), O76015 (parent)
chain: MTSSYSSSSCPLGCTMAPGARNVSVSPIDIGCQPGAEANIAPMCLLANVAHANRVRVGSTPLGRPSLCLPPTCHTACPLPGTCHIPGNIGICGAYGENTLNGHEKETMQFLNDRLANYLEKVRQLEQENAELEATLLERSKCHESTVCPDYQSYFHTIEELQQKILCSKAENARLIVQIDNAKLAADDFRIKLESERSLRQLVEADKCGTQKLLDDATLAKADLEAQQESLKEEQLSLKSNHEQEVKILRSQLGEKLRIELDIEPTIDLNRVLGEMRAQYEAMLETNRQDVEQWFQAQSEGISLQDMSCSEELQCCQSEILELRCTVNALEVERQAQHTLKDCLQNSLCEAEDRFGTELAQMQSLISNVEEQLSEIRADLERQNQEYQVLLDVKTRLENEIATYRNLLESEDCKLPCNPCSTSPSCVTAPCAPRPSCGPCTTCGPTCGASTTGSRF
partner: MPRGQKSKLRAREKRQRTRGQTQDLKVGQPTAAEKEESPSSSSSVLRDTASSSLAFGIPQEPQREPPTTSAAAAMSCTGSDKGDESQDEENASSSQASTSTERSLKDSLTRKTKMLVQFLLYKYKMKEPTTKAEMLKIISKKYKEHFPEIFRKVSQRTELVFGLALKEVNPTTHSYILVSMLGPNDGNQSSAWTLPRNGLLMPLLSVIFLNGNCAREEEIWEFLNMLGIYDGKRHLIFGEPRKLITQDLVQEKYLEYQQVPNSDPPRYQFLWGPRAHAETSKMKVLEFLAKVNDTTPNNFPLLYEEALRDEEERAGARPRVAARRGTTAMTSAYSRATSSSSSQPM

Variants of: B1
Conditions: with ca094_human C1orf94, Q6P1W5

effect of a mutation on the interaction	Variant
with no effect	E368K

Variants of: B2
Conditions: with sdcb1_human SDCBP

effect of a mutation on the interaction	Variant
with no effect	V358M

Variants of: B3
Conditions: with goga2_human GOLGA2, Q08379

effect of a mutation on the interaction	Variant
with no effect	R64H

Variants of: B4
Conditions: with fate1_human FATE1, Q969F0

effect of a mutation on the interaction	Variant
disrupting interaction strength	R437K

Variants of: B5
Conditions: with ar6p1_human ARL6IP1, Q15041
ar6p1_human ARL6IP1, Q15041, sequence (Q15041 whole entry): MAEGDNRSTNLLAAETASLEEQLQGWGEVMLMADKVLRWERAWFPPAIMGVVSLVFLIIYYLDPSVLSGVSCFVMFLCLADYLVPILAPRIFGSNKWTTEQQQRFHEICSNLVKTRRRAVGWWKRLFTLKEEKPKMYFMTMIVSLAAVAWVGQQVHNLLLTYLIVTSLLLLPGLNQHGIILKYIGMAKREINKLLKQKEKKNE

effect of a mutation on the interaction	Variant
with no effect	R437K

Variants of: B6
Conditions: with magb4_human MAGEB4, O15481

effect of a mutation on the interaction	Variant
with no effect	N270K
